Measurements from patent EP4806918A1 (Nanjing Probio Biotech Co., Ltd., dated 2026).
Changes are numbered by the printed parent chain.

B1: AHP30019 fully human antibody (antibody, IgG1, V domains shown, not shown: a dimerising Fc or GST)
VH: QVQLVQSGGGLVQPGGSLRLSCAGSGSSFSLAVMGWYRQAPGRQRELVGIISSAAGTNYADSVKGRFTISRDDAKNTLYLQMNSLTAEDTAVYYCWRGAVPGDPYGRWGQGTLVTVSS
VL: EIVLTQSPLSLPVTLGQPASISCRSSQSLVHSDGNTYLNWFQQRPGQPPRRLIYEVSNRDSGVPDRFSGSGSGTDFTLKISRVEAEDVGVYYCMQGTHWPWTFGQGTKVEIK
B2: AHP31319 fully human antibody (antibody, IgG1, V domains shown, not shown: a dimerising Fc or GST)
VH: B1 VH with Q1E, L113T
VL: EIVMTQSPGTLSLSPGEGATLSCRASQSVSNNYLAWYQQKHGQAPRLLIYGASSRATGIPDRFSGSGSGTDFTLTINRLEPEDFALYYCQQYGNSPGTFGQGTKVDIK
B3: AHP30005 fully human antibody (antibody, IgG1, V domains shown, not shown: a dimerising Fc or GST)
VH: QVQLVDSGGGLVQAGGSLSVSCAVSGRTALTYAVGWFRQAPGKERDFVAGINWSGSMTNYADSVKGRFTISRDNQKNTVYLQMNSLKPEDTAVYYCAATRTAITMPPQRDGVDYWGKGTTVTVSS
VL: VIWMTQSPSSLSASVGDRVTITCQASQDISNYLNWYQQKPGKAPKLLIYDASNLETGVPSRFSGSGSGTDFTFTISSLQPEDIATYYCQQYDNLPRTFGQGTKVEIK
B4: Avelumab (antibody, V domains shown)
VH: EVQLLESGGGLVQPGGSLRLSCAASGFTFSSYIMMWVRQAPGKGLEWVSSIYPSGGITFYADTVKGRFTISRDNSKNTLYLQMNSLRAEDTAVYYCARIKLGTVTTVDYWGQGTLVTVSS
VL: QSALTQPASVSGSPGQSITISCTGTSSDVGGYNYVSWYQQHPGKAPKLMIYDVSNRPSGVSNRFSGSKSGNTASLTISGLQAEDEADYYCSSYTSSSTRVFGTGTKVTVLG

These binders were tested against T1, human PD-L1 on a stable cell line (Probio, RD00868) (human, UniProt Q9NZQ7 19-290) (assay: FACS on stable cell line expressing human PD-L1).
T1 construct: whole, on cells; also called cells expressing human PD-L1
T1 sequence (Q9NZQ7 19-290): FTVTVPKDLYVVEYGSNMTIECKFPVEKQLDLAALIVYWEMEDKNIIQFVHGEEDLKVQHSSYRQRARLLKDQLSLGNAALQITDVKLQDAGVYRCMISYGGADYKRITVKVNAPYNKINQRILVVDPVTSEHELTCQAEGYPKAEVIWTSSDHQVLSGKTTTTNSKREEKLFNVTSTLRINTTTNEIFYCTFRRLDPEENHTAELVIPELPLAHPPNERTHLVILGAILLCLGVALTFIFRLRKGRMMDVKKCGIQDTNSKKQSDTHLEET

Row | Binder | EC50
1 | B1 | 15.9 nM
2 | B2 | 0.977 nM
3 | B3 | 0.193 nM

The binders below were run against T2, mouse PD-L1 on a stable cell line (Probio, M00567) (mouse, UniProt Q9EP73 19-290) (assay: FACS on stable cell line expressing mouse PD-L1).
T2 construct: whole, on cells; also called cells expressing mouse PD-L1
T2 sequence (Q9EP73 19-290, one chain of several): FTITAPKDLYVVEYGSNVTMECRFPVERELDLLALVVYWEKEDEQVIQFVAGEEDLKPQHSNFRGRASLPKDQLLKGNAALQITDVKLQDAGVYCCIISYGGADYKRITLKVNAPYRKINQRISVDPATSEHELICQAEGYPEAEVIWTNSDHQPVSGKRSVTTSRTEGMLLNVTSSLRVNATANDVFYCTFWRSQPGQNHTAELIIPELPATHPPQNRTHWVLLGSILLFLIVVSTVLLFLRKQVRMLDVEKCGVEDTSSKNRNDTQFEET

Row | Binder | EC50
4 | B1 | 31.8 nM
5 | B2 | 0.746 nM
6 | B3 | 0.184 nM

What follows are binders tested against T3, cynomolgus monkey PD-L1 on a stable cell line (Probio, M00573) (cynomolgus monkey, UniProt G7PSE7 19-290) (assay: FACS on stable cell line expressing cynomolgus monkey PD-L1).
T3 construct: whole, on cells; also called cells expressing monkey PD-L1
T3 sequence (G7PSE7 entry or part of it, one chain of several): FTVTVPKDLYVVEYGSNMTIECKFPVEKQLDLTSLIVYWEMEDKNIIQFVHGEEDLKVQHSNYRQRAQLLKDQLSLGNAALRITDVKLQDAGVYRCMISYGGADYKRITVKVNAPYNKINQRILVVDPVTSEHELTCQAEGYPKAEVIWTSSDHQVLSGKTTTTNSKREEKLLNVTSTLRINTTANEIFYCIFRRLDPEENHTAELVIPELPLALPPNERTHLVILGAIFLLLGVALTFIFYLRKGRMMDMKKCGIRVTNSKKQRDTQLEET

Row | Binder | EC50
7 | B4 | 0.894 nM
8 | B1 | 43.5 nM
9 | B2 | 1.34 nM
10 | B3 | 0.725 nM

What follows are binders tested against T4, recombinant human PD-L1-His protein (GenScript, Z03425) (human, UniProt Q9NZQ7 19-238) (assay: indirect ELISA, plate coated with recombinant human PD-L1-His).
T4 construct: Bought protein; also called recombinant human PD-L1 protein; human PD-L1 antigen protein; not shown: His tag
T4 sequence (Q9NZQ7 19-238 limits assumed, one chain of several): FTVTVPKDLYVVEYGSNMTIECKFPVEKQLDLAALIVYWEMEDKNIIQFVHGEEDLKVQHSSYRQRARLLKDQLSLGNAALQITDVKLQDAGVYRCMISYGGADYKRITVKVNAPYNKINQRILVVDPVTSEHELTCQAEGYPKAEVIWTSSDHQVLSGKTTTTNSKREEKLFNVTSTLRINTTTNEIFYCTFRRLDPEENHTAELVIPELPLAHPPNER

Row | Binder | EC50
11 | B1 | 4.26 nM
12 | B2 | 0.173 nM
13 | B3 | 0.275 nM

What follows are binders tested against T4, recombinant human PD-L1-His protein … (assay: SPR, Biacore 8K, antibody Fc-captured, human PD-L1-His as analyte).

Row | Binder | Kd | koff | kon
14 | B1 | 50.3 nM | 0.00146 s⁻¹ | 29000 M⁻¹ s⁻¹
15 | B2 | 5.08 nM | 0.000848 s⁻¹ | 167000 M⁻¹ s⁻¹
16 | B3 | 0.305 nM | 0.000425 s⁻¹ | 1.39e+06 M⁻¹ s⁻¹

These binders were tested against T4, recombinant human PD-L1-His protein … (assay: competition ELISA on coated human PD-L1-His; row antibody titrated, competitor biotinylated Avelumab detected).

Row | Binder | IC50
17 | B2 | 8.97 nM
18 | B3 | 1.34 nM

These binders were tested against T4, recombinant human PD-L1-His protein … (assay: competition ELISA on coated human PD-L1-His; row antibody titrated, competitor biotinylated Tecentriq detected).

Row | Binder | IC50
19 | B1 | 0.972 nM
20 | B2 | 96.1 nM
21 | B3 | 2.81 nM
